According to publication PMC5811608, “Structure of prothrombin in the closed form reveals new details on the mechanism of activation” (Scientific Reports, 2018):

Molecular target: Human recombinant prethrombin-2 (human)
Test: SPR; Biacore S200; prethrombin-2 amine-coupled (NHS/EDC) to a CM5 chip, 1633 RU; fragment-1 injected, two-fold dilutions 7.4-119 uM, single-cycle kinetics, 35 ul/min; 20 mM HEPES, 150 mM NaCl, 5 mM CaCl2, pH 7.4; referenced to an unmodified CM5 surface
Conditions: both partners purified

B1: fragment-1 of prothrombin (domain or fragment)
chain: ANTFLEEVRKGNLERECVEETCSYEEAFEALESSTATDVFWAKYTACETARTPRDKLAACLEGNCAEGLGTNYRGHVNITRSGIECQLWRSRYPHKPEINSTTHPGADLQENFCRNPDSSTTGPWCYTTDPTVRRQECSIPVCGQDQVTVAMTPR
modifications: purchased fragment-1 (presumably plasma-derived): Gla domain gamma-carboxyglutamates, N-glycans and disulfides expected; 5 mM CaCl2 in assay. Mature numbering + 43 = precursor; ends at cleavage site …
With B1 the Kd was over 200 µM.
